The results in this text go back to paper PMC12118398.

Sequence of SFPQ-YFP (natural protein) (P23246 whole entry): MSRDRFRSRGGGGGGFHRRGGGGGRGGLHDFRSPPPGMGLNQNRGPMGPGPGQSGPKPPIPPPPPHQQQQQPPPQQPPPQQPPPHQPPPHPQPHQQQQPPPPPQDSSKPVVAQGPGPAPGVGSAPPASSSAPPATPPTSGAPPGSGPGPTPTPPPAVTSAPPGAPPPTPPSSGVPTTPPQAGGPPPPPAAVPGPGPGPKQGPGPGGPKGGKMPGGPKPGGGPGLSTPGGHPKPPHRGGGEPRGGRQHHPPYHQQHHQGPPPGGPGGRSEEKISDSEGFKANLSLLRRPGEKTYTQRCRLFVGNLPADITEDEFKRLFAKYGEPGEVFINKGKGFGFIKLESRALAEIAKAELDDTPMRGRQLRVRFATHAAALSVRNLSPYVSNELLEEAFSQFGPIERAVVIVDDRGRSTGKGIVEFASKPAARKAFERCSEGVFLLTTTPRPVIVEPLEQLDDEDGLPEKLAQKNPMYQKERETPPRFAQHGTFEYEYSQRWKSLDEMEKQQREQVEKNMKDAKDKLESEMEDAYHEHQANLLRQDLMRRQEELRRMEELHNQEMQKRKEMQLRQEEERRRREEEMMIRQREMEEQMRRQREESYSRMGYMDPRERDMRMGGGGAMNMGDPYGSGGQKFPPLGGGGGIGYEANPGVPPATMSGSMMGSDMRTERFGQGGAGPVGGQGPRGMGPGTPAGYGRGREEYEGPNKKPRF
Sequence of YFP-FXR2_(14-399) (P51116 14-399): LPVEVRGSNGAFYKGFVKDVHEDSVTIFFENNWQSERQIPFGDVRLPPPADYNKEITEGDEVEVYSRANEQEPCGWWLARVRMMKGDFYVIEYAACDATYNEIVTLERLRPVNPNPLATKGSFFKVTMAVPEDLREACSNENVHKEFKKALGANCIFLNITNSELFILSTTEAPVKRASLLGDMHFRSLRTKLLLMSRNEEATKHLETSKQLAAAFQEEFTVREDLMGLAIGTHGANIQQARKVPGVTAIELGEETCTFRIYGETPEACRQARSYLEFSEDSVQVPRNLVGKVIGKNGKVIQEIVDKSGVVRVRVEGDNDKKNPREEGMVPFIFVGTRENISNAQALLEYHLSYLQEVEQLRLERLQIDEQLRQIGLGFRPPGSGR
Sequence of FXR1-CFP (natural protein) (P51114 2-621): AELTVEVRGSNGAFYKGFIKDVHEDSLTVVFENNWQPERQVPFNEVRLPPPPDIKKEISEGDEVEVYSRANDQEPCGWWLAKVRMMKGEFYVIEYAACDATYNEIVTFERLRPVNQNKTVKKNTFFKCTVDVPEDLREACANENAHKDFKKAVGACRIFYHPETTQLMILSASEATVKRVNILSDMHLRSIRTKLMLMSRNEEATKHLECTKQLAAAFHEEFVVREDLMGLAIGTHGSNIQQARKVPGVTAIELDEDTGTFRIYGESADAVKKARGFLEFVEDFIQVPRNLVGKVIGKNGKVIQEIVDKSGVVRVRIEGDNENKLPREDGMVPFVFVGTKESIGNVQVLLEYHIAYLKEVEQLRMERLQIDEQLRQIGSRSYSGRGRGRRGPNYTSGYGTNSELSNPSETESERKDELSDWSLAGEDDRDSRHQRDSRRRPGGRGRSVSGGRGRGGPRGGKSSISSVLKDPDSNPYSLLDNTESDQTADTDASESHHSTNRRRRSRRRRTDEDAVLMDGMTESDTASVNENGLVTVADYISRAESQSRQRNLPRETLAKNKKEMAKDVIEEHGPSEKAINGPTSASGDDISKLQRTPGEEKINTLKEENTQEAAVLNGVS

For the assay, the target named is FXR1-CFP (human). Kind of assay: FRET or BRET.
FXR1-CFP (natural protein) displayed an FRET efficiency of 8.9%.

In turn, SFPQ-YFP (natural protein) showed an FRET efficiency of 9.1%.

“YFP-FMRP_(1-380) (from UniProt Q06787 1-380) (domain or fragment)”: the FRET efficiency stood at 9.7%.

In turn, “YFP-FXR2_(14-399) (from UniProt P51116 14-399) (domain or fragment)” came in with an FRET efficiency of 8.3%.
